From the supplement of paper PMC9170038

Key:
MS2 coat protein [1] = experiment: apparent KD of MS2 coat protein; higher = weaker reporter binding; settings: Eterna round: R101
Experimental: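 RNA-MaP: designed FMN/MS2 RNA switches (84 nt design region) are transcribed on-chip within common flanks and titrated with SNAP-549-labelled MS2 coat protein (about 1-3000 nM) in 100 mM Tris pH 7.5, 80 mM KCl, 4 mM MgCl2, without or with 200 uM FMN. Median apparent KD per design; activation ratio = KD,OFF / KD,ON.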

MS2 coat protein [2] = experiment: apparent KD of MS2 coat protein, switch ON state; designed switch direction (-1 OFF switch, 1 ON switch): 1; higher = weaker reporter binding; settings: FMN input: 0 or 200 uM; Eterna round: R93 (includes R88 designs)
Method in brief: (§1)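 Titration buffer: 100 mM Tris-HCl pH 7.5, 80 mM KCl, 4 mM MgCl2, without or with constant ligand. Designed RNA switches transcribed on-chip from Illumina sequencing clusters received SNAP-549-labelled MS2 coat protein in twofold steps from 0.7 or 1.5 nM to 3 µM. Apparent KD is the median per design of fits to normalised cluster binding curves.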

MS2 coat protein [3] = experiment: apparent KD of MS2 coat protein, switch OFF state (with FMN for OFF switches, without FMN for ON switches); designed switch direction (-1 OFF switch, 1 ON switch): 1; higher = weaker reporter binding; settings: FMN input: 0 or 200 uM; Eterna round: R93 (includes R88 designs)
Method in brief: as §1

Sequence | apparent KD of MS2 coat protein (MS2 coat protein [1]; input ligand: FMN 200 uM) [µM] | apparent KD of MS2 coat protein (MS2 coat protein [1]; input ligand: none) [µM] | apparent KD of MS2 coat protein (MS2 coat protein [2]) [µM] | apparent KD of MS2 coat protein (MS2 coat protein [3]) [µM]
GGAGAUACAUGAGGAUCACCCAUGUAGGAUAUCGGGCCCAUAUCCGGCGAAAGCCGGAUAUGGGCCGAGAAGGGCGUACACACC [#LOL-6] (puzzle (switch architecture): Small Loop Exclusion NG 3) | 0.00758 | 0.00868 | – | –
AGGAGGAAUGUAGGAUAUAUAUAUAUAUAUAGACAAAGUGUAUAUAUAUAUAUAGAAGGACAUGAGGAUCACCCAUGUUUCCCU [#Lowering the energy 13] (puzzle (switch architecture): Small Loop Exclusion NG 1) | 0.00687 | 0.00811 | – | –
AAUAAUCUUUAAGGAUAUCAGUGGCAAAGCCACUGAGAAGGUGAGGAUCACCCAUCUACGUGACCCUGGAAACAGGGUCACGAA [#SharedSequence - ExNG1-12] (puzzle (switch architecture): Exclusion NG 1) | 0.0846 | 0.0667 | – | –
AGGUGAGCUCGAUGGCGACAUGAGGAUCACCCAUGUACGAUCAGAAGGGCUCGGGCAAGAAGUGGGCAGGAUAUGGUCGGUGCC [Xeadion] (puzzle (switch architecture): Inverted Exclusion NG 3) | 0.00451 | – | – | –
AGGUAUACUUAGAAGGGCUCCAGCAAAGCUGGAGCAGGAUAUGAGGAUCACCCAUAUCACCUGACGGUCGAAACGACCGUCAGG [#SharedSequence - IExNG1: 8-1] (puzzle (switch architecture): Inverted Exclusion NG 1) | 0.0268 | 0.0132 | – | –
GUGCUUGUCGAAGGAUAUGGUUACAUGAGGAUCACCCAUGUUAUGCUUGGUUACUUGUUUAGUUUCCAGAAGGUCGAUUAGUUG [salish99_ExNG2_001 #Hinge] (puzzle (switch architecture): Exclusion NG 2) | 0.0557 | 0.023 | – | –
GGUACUCAAAGAGUACCAAUACGAACAUGAGGAUCACCCAUGUAGGAUAUGCUACUCAAAGAGUAGCAGAAGGACAUGUGUCUA [jl-ex3-3.01 #GC_VS_GU_SWITCHING] (puzzle (switch architecture): Exclusion NG 3) | 0.0555 | 0.0139 | – | –
AGGUAUACUUAGAAGGGCUCCAGCAAAGCUGGAGCAGGAUAUGAGGAUCACCCAUGUCACCUGACGGUCGAAACGACCGUCAGG [#SharedSequence - IExNG1: 9-1] (puzzle (switch architecture): Inverted Exclusion NG 1) | 0.0764 | 0.0228 | – | –
UUAUUAUAUGUAGGAUAUGCAUAUUAUUACUGUGCAGAAGGACAUGAGGAUCACCCAUGUAUAUUAUUAUUAUAUAUUAUAUAU (puzzle (switch architecture): Exclusion NG 1) | 0.0206 | 0.0172 | – | –
UAUUCUUUGUUAGGAUAUGGGCCCACCCACCCACAAAGUGGGUGGGUGGGCCCAGAAGGAACAUGAGGAUCACCCAUGUAGGCC [#Aaaddddeeeeeeennnniiiinneeeee!] (puzzle (switch architecture): Small Loop Exclusion NG 1) | 0.0885 | 0.00616 | – | –
GGUCGACUUCAAGGAUAUGGACUGCUUUGCAGUCCAGAAGGUGAGGAUCACCCACCUACGGUCAGGUUUCUGACCGAUCGACCU [#AddUracilToBrourdLoops 4 - Jieux - Exclusion NG1] (puzzle (switch architecture): Exclusion NG 1) | 0.00862 | 0.00794 | – | –
UAUAACGAAAGAGGAUAUAUCGGCCGUCUACGGAUAGAAGGCUUUCGCUAUGGCACUGAUGAUCUACAUGAGGAUCACCCAUGU [EternaBot731] (puzzle (switch architecture): Exclusion NG 1) | 0.00718 | – | – | –
AGAGCUGCUCAGAAGGAGGAUCACCCUUUCGAAAGAAAGACGGAGGCUGAAAAGCCUCCGAAAUUCUAGGAUAUGAGCAGCUCA [#SharedSequence - IExNG2: 1] (puzzle (switch architecture): Inverted Exclusion NG 2) | 0.411 | 0.204 | – | –
ACACGUCGUGAGAAGGAGGAUCACCCUUUCGAAAGAAAUAGCCACCGUGAAAACGGUGGCAAAUCUUAGGAUAUCACGACGUGA [#SharedSequence - IExNG2: 5] (puzzle (switch architecture): Inverted Exclusion NG 2) | 0.189 | 0.189 | – | –
GCAGCUAAUGCAGGAUAUCAGCACGUGUAGUGCUGAGAAGGGCACAUGAGGAUACCCACUGUGAUCAAUUAAUAUUAAUGCUGC [salish99#hingeEx3_55-58_002] (puzzle (switch architecture): Exclusion NG 1) | 0.0184 | 0.0502 | – | –
UAUUCUUUGUUAGGAUAUGGGCCCACCCACCCACAAAGUGGGUGGGUGGGCCCAGAAGGAACAUGAGGAUCACCCAUGUAGGAA [#Aaaddddeeeeeeennnniiiinneeeee!] (puzzle (switch architecture): Small Loop Exclusion NG 1) | 0.0531 | 0.0117 | – | –
GACUGCAGGAUAACAACCUGCAGUCACUUCUGAGGAUCACCCAGAAGGGCUGAGGUAAUACCUCAGCAGGAUAUGGAGUGAAAA [#SharedSequence IExNG# - 5] (puzzle (switch architecture): Inverted Exclusion NG 3) | 0.141 | 0.0643 | – | –

Sequence | apparent KD of MS2 coat protein (MS2 coat protein [1]; input ligand: FMN 200 uM) [µM] | apparent KD of MS2 coat protein (MS2 coat protein [1]; input ligand: none) [µM] | apparent KD of MS2 coat protein (MS2 coat protein [2]) [µM] | apparent KD of MS2 coat protein (MS2 coat protein [3]) [µM]
AGAAACUACGAGAAGGACAUGUGGUCCUUCGGGAAAAUGAGGAUCACCCAUGUAGGAUAUCGUAGUUUCAGGAUCGUGAGAUCA [salish99_ISLExNG1_022 #HINGE] (puzzle (switch architecture): Inverted Small Loop Exclusion NG 1) | 0.0511 | 0.0692 | – | –
AAUAUACAUGAGGAUCACCCAUGUUUUAAUAGCUGAGGAUAUACGGGUGAAAACAGCAUAGUAGAAGGCGGGUGUA [SameState1 Malc#8] | – | – | 0.0996 | 0.115
GAGAGACAUGAGGAUCACCCAUGUAGGAUUAUGGGAGGAUAUACAAAGACGAGAGUCAGAGUAGAAGGCCUAGGAA [salish99-ss1-137(!)] | – | – | 0.0242 | 0.0744
AAAAGACAUGAGGAUCACCCAUGUAAAAACAUAGGAGGAUAUGUCUUGAAAAAAGACUUGACAGAAGGCCUUUGUC [SS1 - 52] | – | – | 0.0395 | 0.0752
GCUUAUCCAUGCUAGGAUAUCGGCGAGAAAACAUGAGGAUCACCCAUGUGCUUGCAUAAAAGUCACGAGAAGGAGCCUGAUGGAC [Quanletira] | – | – | 0.0197 | 0.0173
AACAGACAUGAGGAUCACCCAUGUAGAAUUAUGGGAGGAUAUACAAAGACGAGAGUCAGAGUAGAAGGCCUAGGAA [salish99-ss1-165] | – | – | 0.022 | 0.0897
GAGGACAUAGUACAGGAUAUAUGAAUAGUCACAUGAGGAUCACCCAUGUGCAUUUAUAUGCGCACAUAGAAGGGUGGUAGUUAUC [SameState2 Malc#28] | – | – | 0.155 | 0.067
CGGAAGGAGAGAGAGGAUAUCCAAAGGAAAACAUGAGGAUCACCCAUGUAGAAGGUAGGAAAUUGGGAGAAGGCUCAAGAGAUAG [salish99-ss2-124] | – | – | 0.0206 | 0.0391
GAGGACCUAGGAUAGGAUAUGUGAAUAAUUACAUGAGGAUCACCCAUGUCCAUUUAUAUGGGAACAUAGAAGGGUUCUGGUUAUC [SameState2 Malc#38] | – | – | 0.0518 | 0.0719
AAAAAACAUGAGGAUCACCCAUGUAAUAAAACGUCAGGAUAUUGAUUUUAUUAUUUAUUACAAGAAGGGACAAAAA [Same State 1 - Omei 1] | – | – | 0.035 | 0.055
AUUACAUAUAGUUAGGAUAUCAUAUGUAAGACAUGAGGAUCACCCAUGUCCUAAGAAUAGGUAAAUGAGAAGGAACAGUGAGUAU [JR_SS002_Sub419] | – | – | 0.0171 | 0.0239
GGGAGGAAGAGAGAGGAUAUCCAAAGGAAAACAUGAGGAUCACCCAUGUAAAAGGUAGGAAAUUGGGAGAAGGCUCAAGAGAACG [salish99-ss2-056] | – | – | 0.0255 | 0.0289
AGAAAUAAAAGAGAGGAUAUUCAAAAAGGGACAUGAGGAUCACCCAUGUAAAAGAAAAUAAAAUGGGAGAAGGCUCUAAAUAAAG [80%, More Helter Skelter 2] | – | – | 0.0866 | 0.127
AAAACACAUGAGGAUCACCCAUGUGCAAAAUUCGCAGGAUAUUCCUCAAUUAAAUGAAAGGAAGAAGGGUGAUAAA [Nob's Hobby 32 - Jieux - Same State 1] | – | – | 0.0178 | 0.0502
GGCUGCAAUUAUGAGGAUAUGUUCGGAUGAACAUGAGGAUCACCCAUGUGGCGAUAGCUAUCUGUGCAGAAGGUGUAGUGGUAGC [Edlexete] | – | – | 0.0388 | 0.13
AAAUAAAUGACUCAGGAUAUAUCAUAGGGUACAUGAGGAUCACCCAUGUUUUAAUAACAUGUUUGGUAGAAGGGAGUCAAUAAAU [LROPPY Same State 2 - v07_deltaG=1.69] | – | – | 0.0851 | 0.133
